From paper PMC3046063 (Molecular Biology of the Cell, 2011)

Assays:
His-Gαi3 [1] = target: T1, His-Gαi3 (UniProt P08753 1-354); test: cell-based or functional assay
His-Gαi3 [2] = target: T1, His-Gαi3
His-Gαi3 [3] = target: T1, His-Gαi3; test: SEC

T1 sequence (P08753 whole entry): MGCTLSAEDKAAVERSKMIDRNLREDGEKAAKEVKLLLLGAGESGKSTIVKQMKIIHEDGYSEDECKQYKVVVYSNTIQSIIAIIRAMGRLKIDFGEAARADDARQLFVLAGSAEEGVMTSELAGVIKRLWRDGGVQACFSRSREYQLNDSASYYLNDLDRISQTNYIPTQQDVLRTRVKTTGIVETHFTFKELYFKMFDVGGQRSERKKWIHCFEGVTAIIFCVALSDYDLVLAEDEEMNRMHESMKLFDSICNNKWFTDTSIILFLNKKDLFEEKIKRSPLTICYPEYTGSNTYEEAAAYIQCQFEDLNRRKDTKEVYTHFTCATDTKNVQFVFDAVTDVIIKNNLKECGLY

B1: His-GIV-CTs (aa 1660–1870) (domain or fragment, UniProt Q3V6T2-3 1660-1870, looked up)
chain: SETLESRHHKIKTGSPGSEVVTLQQFLEESNKLTSVQIKSSSQENLLDEVMKSLSVSSDFLGKDKPVSCGLARSVSGKTPGDFYDRRTTKPEFLRPGPRKTEDTYFISSAGKPTPGTQGKIKLVKESSLSRQSKDSNPYATLPRASSVISTAEGTTRRTSIHDFLTKDSRLPISVDSPPAAADSNTTAASNVDKVQESRNSKSRSREQQSS
steady-state GTPase activity of His-Gαi3 (50 nM) alone with 0-2 μM His-GIV-CTs (His-Gαi3 [1]): ~3 fold | Kd (His-Gαi3 [2]): ~300 nM | stoichiometry N (His-Gαi3 [3]): 1 His-Gαi3:His-GIV-CTs
